Test results published in the DeepSol protein solubility set.

Assay: soluble on expression in E. coli; label from the status in PepcDB or PDB records

Soluble on expression in E. coli, soluble:
GMVYVDPDRFDELVAEALDGIPEEFARAMRNVAVFVEDEPDDPELLGLYVGIPLTERTTAYGGVLPDRIIIYRNTICALCETESEVIDEVRKTVVHEIAHHFGIDDERLHELGY
AHHHHHHGSNAVEIISREISPTLDIQTKILEYMTDFFVKEGFKWLLPVIISPITDPLWPDPAGEGMEPAEVEIYGVKMRLTHSMILHKQLAIAMGLKKIFVLSPNIRLESRQKDDGRHAYEFTQLDFEVERAKMEDIMRLIERLVYGLFRKAEEWTGREFPKTKRFEVFEYSEVLEEFGSDEKASQEMEEPFWIINIPREFYDREVDGFWRNYDLILPYGYGEVASGGEREWEYEKIVAKIRKAGLNEDSFRPYLEIAKAGKLKPSAGAGIGVERLVRFIVGAKHIAEVQPFPRIPGIPAVI
MAELQMLLEEEIPGGRRALFDSYTNLERVADYCENNYIQSADKQRALEETKAYTTQSLASVAYLINTLANNVLQMLDIQASQLRRMESSINHISQTVDIHKEKVARREIGILTTNKNTSRTHKIIAPANLERPVRYIRKPIDYTILDDIGHGVKVSTQNMKMGGLPRTTPPTQKPPSPPMSGKGTLGRHSPYRTLEPVRPPVVPNDYVPSPTRNMAPSQQSPVRTASVNQRNRTYSSSGSSGGSHPSSRSSSRENSGSGSVGVPIAVPTPSPPSVFPGHPVQFYSMNRPASRHTPPTIGGSLPYRRPPSITSQTSLQNQMNGGPFYSQNPVSLAPPPPSILQVTPQLPLMGFVARVQENISDTPPPPPPVEEPVFDESPPPPPPPEDYEEEEAAVVEYSDPYAEEDPPWAPRSYLEKVVAIYDYTKDKEDELSFQEGAIIYVIKKNDDGWYEGVMNGVTGLFPGNYVESIMHYSE
MAHHHHHHSLRLTPLPQPKRIHYMVKVGDTLSGIFAQLGVPYSILQKILSVDLDHLQLDMIQPGEELELMMDDMGQLSRLIYHMSIVEKAIYTRENDGSFSYDFQEISGEWREILFSGEINGSFSVSARRVGLTSSQVANITQVMKDKIDFSRSLRAGDRFDILVKQQYLGEHNTGNSEIKAISFKLAKGDVSAFLAEDGRFYDRAGNSLERAFNRYPVDKAYRQITSGFNPKRKHPVTGRVVPHNGTDFATPIGAPVYSTGDGKVIVVRKHPYAGNYLVIEHNSVYKTRYLHLDKILVKKGQLVKRGQKIALAGATGRLTGPHLHFEVLVRNRPVDAMKADLPIAKSLSSNQKTSFLARVSEFDHLVQANQQEVALDEG
MSLYENNVKDTKDFYNDIGHISWSVAPSQHYHVGIFELEKDSMEDAQNRTVEYMARKVAASDLDVLLDIGCGSGLTAVQISKKENCKIVGINISEKQLAIGKKLISKEKINSRVKLMNMDAHQLNFKSGMFDGAYALESIMHMNREKVLSEVHRVLKNGAPFSLCDWYVKKSLTPVEKRFLETITLGKYITKEQYFSLYQTQNFMDIEIEEWSNKILPTYKYWTTITDEMKEKLPDHLLYVIEENSKVLSDIAIEKLGYLQVNGIKREGHHHHHH
MGHHHHHHSHMLRGMARMGGQRRLKALAAPRFWPILRKEYKWAVKPRPGPHPAEKSLPLLLIVRNVLGYAQTAREARKLISEGHFRVDGVVRKDYKFPVGFMDVIEVVDTGEKFRMLPYPVKFFKLHPIPEEEGDLKPVRIENKTTVKGGHVQLNLHDGRNILVRVKDPRNPVEDVYRTMDTLLITVPGQEIKGHIKFGEGAIAIIVGGRNVGRVGVVKSVQKGWGRKRTLVTLEDASGNLFQTSLDYVFVIGLDRPVISLPEGAWK
AHHHHHHGSEIDKGLAKFGDSLINFLYSLALTEFLGKPTGDRVPNASLAIALELTGLSKNLRRVDKHAKGDYAEALIAKAWLMGLISEREAVEIIKKNLYPEVLDFSKKKEAIGRALAPLLVIISERLYSSQV
MSLPEYDPDKYRGIDVSYVNICMRRAWLSLHEIFYVRDSYYVSDGAYLADINRKGLPISTGRSRMDNVQIHKDFIMVHEYKRGYKMIKADKMQILHYMYIIKLKENLDIKGKLHFLGSKKVVDIELNDENLNELYKSYENIDKLKDMAKPPEPVRNYFCVHGCSYSDFCWCEGHHHHHH
MKIQDLLKKEVMIMDLKATSKEAAIDEMITKLVDTGVVTNFAIFKDGIMKREAQTSTGLGDGIAMPHSKNAAVKEATVLFAKSASGVDYEALDGQPTDLFFMIAAPDGANDTHLAALAELSKYLLKEGFADQLRQAKTPDDIIATFDS
MNKENIIADAPSDVVKTVQQQVHLNQDEYKYLKQVEQILREGTRRDDRTGTGTISIFGMQSKYCLRNGTIPLLTTKRVYWKGVLEELLWFISGSTDGKLLMEKNVKIWEKNGDRAFLDNLGFTSREEGDLGPVYGFQWRHFGAKYVDCHTDYSGQGVDQLAEVIRQIKEQPDSRRIIMSAWNPSDLGQMVLPPCHTMCQFYVDNGELSCQLYQRSGDMGLGVPFNLASYGLLTHMIAKVCGLKPGTLVHTLGDAHVYSNHVDALKIQLDREPYAFPKIRFTRDVASIDDFTSDMIALDDYKCHPKIPMDMAV

Soluble on expression in E. coli, not soluble:
MGSDKIHHHHHHMQQPLAYRMRPRHLDEVVGQQHLVGPGKIIRRMVEAKMLSSMILYGPPGTGKTSIASAIAGSTNYAFRMLNAATDTKKDLQIVAEEAKMSGTVILLLDEIHRLDKTKQDFLLPHLENGRIIMIGATTENPYITINPAIRSRTQIFEVKPLTETDIQQAIQEALTDSTRGLGDYPVHLEEKALQHLTRATNGDLRSALNGLELAVKSTPKNEQGEIKITLPIIEECVQRKALTHVKDGDAHYDVISAFQKSIRGSDVDAALHYLGRLVEAGDLPIICRRLMVIAYEDIGLGNPAAAARTVTAVQAAEKLGFPEARIPLASVVIDLCLSPKSNSAVTAIDAALADIRQGSVGDVPDHLRDAHYAGAKELNRGIGYQYPHNFENGWVNQQYLPDKLKEARYYEPIDIGKYEQALHQQLKRIQEWKQKK
MSDENLETESTSKALEDILSYTDSPAFRHIFSFFLGRPRIRAKSTLNLDILSEEVVIRKGKLIHTWQNARAVFYNSNIRLQTKNNQDEALQIRNMKVDVHESKRGRALRLKDDDVCYLIIFQRPNILEAWLTRAQQVEKSNHVDASDEQLTLIPEQILNNEARVQILNLRRNSLISRPPTEKSMAPLGYIDDLYRVHSLQVIDLSANQILSFPIQLTLLSHLRQLNLSSNYISSVPSECSNMRRLQYLNLSNNQLDTLPDSISELQNLQSLDISFNQFSQIPPCLFHLTLEMWRLAGNNIEKIDRVGEMQIQKIDLRRNVLDTSFRLDIENITHLDLRDNSMISTVHLTNLRFLKVIHCERLQLSSLHLSGESLTHVYADHNLLDSLVVMPLPQNLQTLSLSFNHFRNLPDWISDCPNLTFLRANNNSLVALPERIFYSQSLRSIFAFINEIEHIPDFGEENCLETLILYKNKLSSLPKHFFSILPRLRQLNISSNFIELLPYFDGSSFCRLQILRCANNYLTENSVPVIVNMKHLKIIDLSHNRLNSFDDSALSSLELLEDLNLSSNRLTRLADCLALLPCLQVLRAHSNQLVHVPEFRASNQLHTIDVSSNNISLGTLQFKAPPNLRHFDVTCNSGDFDTENFPENAKMHSKMNTINISEGSQNLFGFQIGVSGSRGMKNKQCIRQVRVENTFGFIDGGSNSYMSSSICRFMTSYLKENVSMDIRSILLRCHCELGEEGERLGASVMIIRVHEKRLEIASTGTMSAAIARNQKLKMIINGRYEIDDDEYSRIREAHGFVDEENRINGVIGSSRQIGHFSTFPVVLPTHSYRNIQLNEQIEGLIVGNNMIWNMLSIDDLNSTFHNNRSPIVVAKKIQDQLQSYDYGGNSNILVLRRIKPQMTFNGFSTSSTKNQVTPDIAIPKIDEQLVLAVPALILPEYHPSPPVPPPIPAIRHRTPSPPPPPLPSSTPPPVSSEHEEINVRQSSTLSGGYTLSIDRFYSSSSTVSSRKQFNETRDLLSKSLKLSPPNTVTFNI
MRLVEIGRFGAPYALKGGLRFRGEPVVLHLERVYVEGHGWRAIEDLYRVGEELVVHLAGVTDRTLAEALVGLRVYAEVADLPPLEEGRYYYFALIGLPVYVEGRQVGEVVDILDAGAQDVLIIRGVGERLRDRAERLVPLQAPYVRVEEGGIHVDPIPGLFDLEHHHHHH
MDWRWWKIAYEELTEKQQRFVDKYITTFNATESAKQAGYSEKSAYSQGQRLLKNVEIQKAMKERFLEAKDTKGDRIQDVAETLEQDTSIARGEIQISEFKETDMLTGQVVIHTKREYTPSHEEQGRARDRIYKVNGAYSEKRELEHSGTVVFANEDNIPD
MPHFNFDYQEFLMMVQHLKRRPLSRYLKDFKHSQTHCAHCRKLLDRITLVRDGKIVNKIEISRLDTLLDEKGWQTEQQSWAALCRFCGDLHCKTQSDFFDIIGFKKFLFEQTEMSPGTVREYVVRLRRLGNHLHEQNISLDQLQDGFLDEILAPWLPTTSTNNYRIALRKYQHYQRQTCTGLVQKSSSLPASDIY
MVAISEIKSTVDVTAANCLMLLSRVGQENVDGGDQKRVFTCKTCLKQFHSFQALGGHRASHKKPNNDALSSGLMKKVKTSSHPCPICGVEFPMGQALGGHMRRHRNESGAAGGALVTRALLPEPTVTTLKKSSSGKRVACLDLSLGMVDNLNLKLELGRTVY
MAHHHHHHMTHYSRKPQVSSKSAKAKVSDLRCHYKNTFETANVINGMPLRKAQQLYRQVLAKTRCIPFKRYNGKIGRTAQAKEWGQTKGRWPRKSVVAMMSLLKNAEANAIEKGLDPNQMVIKHVQVDQAARMRRRTYRAHGRITPYMCSPCHVQLFMSEKKERVPAPKSAPKK
MANVQSGKMIVGLDIGTSKVVALVGEVAADGSLEIVGIGTHPSRGLKKGVVVNIESTVQSIQRAIEEAQLMAGCRIHSAFVGVAGSHIRSLNSHGIVAIRDREVSAADLERVLDAAQAVAIPADQ
MSVSSEISASKLPYVRIPGSKPVPRLLKWTIFKCSFMKIRTIGLHHPDGRLYFFEFCQGKDTFVPHVCSACLPIITEKDLFPDYIVWAEEIEDYVIFAFSSMSNKMEQFVYSFETRRFVEVDLPELVYNRGDATTGDIVAALYGENETIVIERDENGAMLIRSFVHKDNSRKPVNTLVMQNIEKNGLQVGKDEEVTDISNEFGYLDYVETLPELKIKTCSANRTSIHVFSKKTGRYLKYHYVINTGSFINTSNLDCSNCNSVTSEKYLLPEYSVYSKALDARVIHCTNNLTSDIEQYTFNPDTNAFEQVYCKELVYDPNRFNRASLAAYVFPENVANNGTVIISRDVYEVIQKEKYSIVTDEYVVLPAAPVKTFAVRIQEEKQKKLDEEEQQKVLKTQELEKQKDGQIVIMELEMKEMTTLLEEKDTRIKMHVEKHRDKECELELVRRKLDDCVVRMQGAFERDIKLEEAKVQASREAKKQYENLMTILGEKE
MAAESATTETVEKSGNEESTVEVKVNGEAQNPPQESAKPAESVEDDDEPAPAKKRSGGDSEEKEDEAAEDGPEDGEEKSNLDDDQNVENPAYIPKTGRFYMHDDNRRGDVNNSQVQDDDSDDRRNLKKSRADCDWKHDRFDEKFQRPKTKKQIVTKYGFDIRHKDGTPIQDGEEIDAPAPESTEEESSDARQVSRQQKDRRVSSTTRGKVGKSGTSRRPMKQREREDTVDESKGEEEEDQGVRPAQKRQVKQQEKPRKQKPAAPPSSEENEEDEDDGAIRRGQRRAVPLRRGTTSGPPSRLRGRMSHPMGPPRRSSGAPPSSASNRRPVESSSRGPPPPPSSSSRRDYSHQGDRNDDRFENHRRGVIRGASRGGGTVTRGTGGYGRTGAIRGGVRGSGAPRYGVRRTDTSEQSEGYQRGGSGTDYSSPRPNHQSDRSYQASSTNFRGGSHPHPSANVYPSSRGGYSSNNADYASRGGGGYHGPPQHHNNHHNHQQKRFVQGPPPPMVAVGVVPGNVVPPPQMTRGSTHGGNQHNGGGGGGSGGQQRIRQPTDVVYFDPQQQQGTRQLPPRSKKVIPIVDPKDHQ
